Laboratory results: IntAct's records for PubMed 10629049

Each substance was assayed against po2f1_human POU2F1 (UniProt P14859).
Sequence of UniProt P14859 (P14859 whole entry): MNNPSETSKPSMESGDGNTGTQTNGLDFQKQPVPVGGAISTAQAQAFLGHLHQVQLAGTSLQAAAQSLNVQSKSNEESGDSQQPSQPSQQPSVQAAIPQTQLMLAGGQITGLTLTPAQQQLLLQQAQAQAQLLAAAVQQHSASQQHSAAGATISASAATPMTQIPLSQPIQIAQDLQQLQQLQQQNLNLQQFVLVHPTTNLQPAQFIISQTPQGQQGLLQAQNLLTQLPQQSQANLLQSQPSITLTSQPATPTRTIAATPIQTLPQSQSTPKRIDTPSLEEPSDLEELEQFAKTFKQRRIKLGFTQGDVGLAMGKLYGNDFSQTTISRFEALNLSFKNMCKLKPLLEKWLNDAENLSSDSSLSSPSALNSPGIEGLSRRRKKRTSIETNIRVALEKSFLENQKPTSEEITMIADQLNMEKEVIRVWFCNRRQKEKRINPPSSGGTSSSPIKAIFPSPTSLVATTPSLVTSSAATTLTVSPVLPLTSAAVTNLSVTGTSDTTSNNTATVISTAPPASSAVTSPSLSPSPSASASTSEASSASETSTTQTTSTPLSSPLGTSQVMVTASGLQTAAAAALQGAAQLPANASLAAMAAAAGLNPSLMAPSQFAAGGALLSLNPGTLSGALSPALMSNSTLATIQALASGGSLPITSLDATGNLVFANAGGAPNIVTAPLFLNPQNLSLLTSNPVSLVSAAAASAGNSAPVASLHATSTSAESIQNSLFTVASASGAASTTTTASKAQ

effect of a mutation on the interaction | Substance
decreasing interaction | Host cell factor 1 (Homo sapiens), P51610 P134S
decreasing interaction | Host cell factor 1 (Homo sapiens), P51610 E289A;W290A;K291A
decreasing interaction | Host cell factor 1 (Homo sapiens), P51610 R344A;K345A

These substances were tested against creb3_human CREB3 (UniProt O43889).
Sequence of UniProt O43889 (O43889 whole entry): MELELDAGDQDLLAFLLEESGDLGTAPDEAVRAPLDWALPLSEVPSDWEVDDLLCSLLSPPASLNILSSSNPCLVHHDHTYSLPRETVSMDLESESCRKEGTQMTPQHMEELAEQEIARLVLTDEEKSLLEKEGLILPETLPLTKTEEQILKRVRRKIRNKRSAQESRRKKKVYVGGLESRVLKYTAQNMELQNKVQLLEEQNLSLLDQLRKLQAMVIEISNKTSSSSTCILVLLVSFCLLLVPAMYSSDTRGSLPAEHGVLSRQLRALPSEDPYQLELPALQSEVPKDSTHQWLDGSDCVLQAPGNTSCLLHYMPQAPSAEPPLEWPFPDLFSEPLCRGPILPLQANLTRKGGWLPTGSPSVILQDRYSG

effect of a mutation on the interaction | Substance
decreasing interaction | Host cell factor 1 (Homo sapiens), P51610 P30S
decreasing interaction | Host cell factor 1 (Homo sapiens), P51610 P319S
decreasing interaction | Host cell factor 1 (Homo sapiens), P51610 P134S
decreasing interaction | Host cell factor 1 (Homo sapiens), P51610 E289A;W290A;K291A

Further lines, the substance ahead of its results:

Substance | effect of a mutation on the interaction
Host cell factor 1 (Homo sapiens), P51610 P197S | decreasing interaction
Host cell factor 1 (Homo sapiens), P51610 S338A | decreasing interaction
Host cell factor 1 (Homo sapiens), P51610 P79S | decreasing interaction
Host cell factor 1 (Homo sapiens), P51610 C82D | decreasing interaction
Host cell factor 1 (Homo sapiens), P51610 R228D | decreasing interaction
